# Measured values reported in patent US20190111114A1 (BRIGHAM AND WOMEN S HOSPITAL, published 2019).
# B1: mouse LRF tagged at the far C-terminus with Flag and HA (pMX-mCherry-FHC-mLRF), expressed in MEL cells (other, UniProt O88939 1-569, looked up)
# chain: MAGGVDGPIGIPFPDHSSDILSGLNEQRTQGLLCDVVILVEGREFPTHRSVLAACSQYFKKLFTSGAVVDQQNVYEIDFVSAEALTALMDFAYTATLTVSTANVGDILSAARLLEIPAVSHVCADLLERQILAADDVGDASQPDGAGPTDQRNLLRAKEYLEFFRSNPMNSLPPTAFPWSGFGAPDDDLDATKEAVAAAVAAVAAGDCNGLDFYGPGPPADRPPAGDGDEGDSTPGLWPERDEDAPPGGLFPPPTAPPATTQNGHYGRAGAGTGEEEAAALSEAAPEPGDSPGFLSGAAEGEDGDAADVDGLAASTLLQQMMSSVGRAGDSDEESRTDDKGVMDYYLKYFSGAHEGDVYPAWSQKGEKKIRAKAFQKCPICEKVIQGAGKLPRHIRTHTGEKPYECNICKVRFTRQDKLKVHMRKHTGEKPYLCQQCGAAFAHNYDLKNHMRVHTGLRPYQCDSCCKTFVRSDHLHRHLKKDGCNGVPSRRGRKPRVRGVPPDVPAGAGAPPGLPDAPRNGQEKHFKDEEEDEEEASPDGSGRLNVAGSGGDDGAGGPAVATAEGNFAT
# notes: also called exogenous LRF; not shown: Flag and HA tags at the 3' end of the cDNA, Flag placed 15 aa upstream of the HA tag
# Target: T1, BCL11A, endogenous, in mouse erythroid (MEL) cells (mouse, UniProt Q9QYE3 1-835, limits assumed)
# T1 sequence (looked up): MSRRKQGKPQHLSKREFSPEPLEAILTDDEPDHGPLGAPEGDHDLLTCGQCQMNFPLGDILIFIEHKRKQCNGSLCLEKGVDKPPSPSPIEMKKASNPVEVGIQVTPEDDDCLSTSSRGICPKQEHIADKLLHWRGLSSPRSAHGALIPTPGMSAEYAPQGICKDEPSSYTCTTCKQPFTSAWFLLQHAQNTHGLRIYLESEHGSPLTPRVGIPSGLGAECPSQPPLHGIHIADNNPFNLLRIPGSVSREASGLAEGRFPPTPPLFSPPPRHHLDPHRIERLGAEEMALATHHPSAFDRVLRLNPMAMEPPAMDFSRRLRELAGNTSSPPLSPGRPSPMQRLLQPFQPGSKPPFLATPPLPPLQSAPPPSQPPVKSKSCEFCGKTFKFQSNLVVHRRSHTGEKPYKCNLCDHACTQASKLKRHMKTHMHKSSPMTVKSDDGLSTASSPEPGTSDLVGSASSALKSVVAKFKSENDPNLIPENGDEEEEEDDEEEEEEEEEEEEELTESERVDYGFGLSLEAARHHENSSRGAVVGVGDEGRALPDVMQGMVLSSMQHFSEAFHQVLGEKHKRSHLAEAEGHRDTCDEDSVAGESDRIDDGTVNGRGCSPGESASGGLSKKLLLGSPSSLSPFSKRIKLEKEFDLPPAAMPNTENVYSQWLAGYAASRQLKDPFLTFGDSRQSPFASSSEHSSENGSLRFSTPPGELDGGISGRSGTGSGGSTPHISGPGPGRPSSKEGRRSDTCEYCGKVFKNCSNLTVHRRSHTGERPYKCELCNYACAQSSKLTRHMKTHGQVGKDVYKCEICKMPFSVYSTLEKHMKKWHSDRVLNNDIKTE
# Experiment: immunoprecipitation of tagged mouse LRF from MEL cells, Western blot
# Text: FKPM values were obtained from RNA-Seq experiments. (B) Validation of Y2H results by IP. […] Protein samples from empty vector-transfected cells served as negative controls. (C) LRF/GATAD2B interaction was validated in mouse erythroleukemia (MEL) cells. Applicants generated a series of expression vectors encoding N- or C-terminally-tagged mouse LRF (mLRF) and performed IP in MEL cells. Applicants could pull-down NuRD components and endogenous LRF protein only when Applicants expressed the LRF tagged at the far C-terminus. Anti-HA antibody could pull down both endogenous and exogenous LRF plus NuRD components (far right lane), while antibody against Flag, which was placed 15 aa upstream of the HA tag, pulled down only exogenous LRF (2nd lane from the left). Although Applicants tested 5 different (2 original and 3 commercially-available) anti-LRF antibodies for IP in mouse cells, none could pull down endogenous mouse LRF protein. Native LRF in the large NuRD complex may be inaccessible to anti-LRF antibodies in mouse cells (a model shown on right). Applicants note that the BCL11A image is from a different membrane. (D) Knockout of LRF or BCL11A was confirmed by Western blot using anti-LRF or -BCL11A antibodies. GAPDH: loading control. (E) Relative copy number of indicated β-globin transcripts was determined by q-PCR, as described in FIG. 8C. […]
binder,measurement,value
B1,binding result,no binding
